Tests used:
Assay in all cases: flow cytometry on transfected HEK293 cells
[1] = target: T1, rat ROBO4 (pCI-raROBO4-transfected HEK293 cells) (rat, UniProt Q80W87 38-949 at identity 0.93))
T1 chain: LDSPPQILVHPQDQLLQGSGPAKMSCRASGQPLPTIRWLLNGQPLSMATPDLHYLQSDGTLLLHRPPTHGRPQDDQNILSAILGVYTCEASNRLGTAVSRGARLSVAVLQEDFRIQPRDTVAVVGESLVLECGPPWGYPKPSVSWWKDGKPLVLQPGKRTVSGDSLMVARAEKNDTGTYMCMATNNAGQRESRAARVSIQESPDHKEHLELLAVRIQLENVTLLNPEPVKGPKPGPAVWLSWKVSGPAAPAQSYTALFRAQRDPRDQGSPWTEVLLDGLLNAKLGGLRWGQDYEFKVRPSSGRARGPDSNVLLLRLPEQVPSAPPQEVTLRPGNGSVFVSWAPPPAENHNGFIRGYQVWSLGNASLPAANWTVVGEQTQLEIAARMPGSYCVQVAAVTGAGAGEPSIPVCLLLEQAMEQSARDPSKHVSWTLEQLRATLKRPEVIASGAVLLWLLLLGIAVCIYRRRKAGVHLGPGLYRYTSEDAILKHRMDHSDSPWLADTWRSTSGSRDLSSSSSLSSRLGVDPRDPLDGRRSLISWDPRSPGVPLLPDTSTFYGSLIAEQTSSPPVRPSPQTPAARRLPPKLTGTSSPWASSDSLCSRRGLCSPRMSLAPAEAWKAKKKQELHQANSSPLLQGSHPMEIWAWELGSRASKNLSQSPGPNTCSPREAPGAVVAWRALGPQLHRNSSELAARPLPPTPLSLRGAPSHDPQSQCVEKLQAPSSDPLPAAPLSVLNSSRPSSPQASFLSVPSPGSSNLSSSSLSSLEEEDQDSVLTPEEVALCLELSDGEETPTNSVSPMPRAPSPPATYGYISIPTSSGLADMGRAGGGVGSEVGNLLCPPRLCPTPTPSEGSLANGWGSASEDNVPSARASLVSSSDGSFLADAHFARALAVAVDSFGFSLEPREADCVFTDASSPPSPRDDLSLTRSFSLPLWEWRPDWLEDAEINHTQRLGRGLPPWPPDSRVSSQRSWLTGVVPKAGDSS

[2] = target: N-terminal FLAG-tagged human ROBO1 (pCI-FLAG-hROBO1-transfected HEK293 cells) (human, UniProt Q9Y6N7 58-1651)
Sequence of N-terminal FLAG-tagged human ROBO1 (pCI-FLAG-hROBO1-transfected HEK293 cells) (Q9Y6N7 other isoform, or with tags, fused parts or gaps): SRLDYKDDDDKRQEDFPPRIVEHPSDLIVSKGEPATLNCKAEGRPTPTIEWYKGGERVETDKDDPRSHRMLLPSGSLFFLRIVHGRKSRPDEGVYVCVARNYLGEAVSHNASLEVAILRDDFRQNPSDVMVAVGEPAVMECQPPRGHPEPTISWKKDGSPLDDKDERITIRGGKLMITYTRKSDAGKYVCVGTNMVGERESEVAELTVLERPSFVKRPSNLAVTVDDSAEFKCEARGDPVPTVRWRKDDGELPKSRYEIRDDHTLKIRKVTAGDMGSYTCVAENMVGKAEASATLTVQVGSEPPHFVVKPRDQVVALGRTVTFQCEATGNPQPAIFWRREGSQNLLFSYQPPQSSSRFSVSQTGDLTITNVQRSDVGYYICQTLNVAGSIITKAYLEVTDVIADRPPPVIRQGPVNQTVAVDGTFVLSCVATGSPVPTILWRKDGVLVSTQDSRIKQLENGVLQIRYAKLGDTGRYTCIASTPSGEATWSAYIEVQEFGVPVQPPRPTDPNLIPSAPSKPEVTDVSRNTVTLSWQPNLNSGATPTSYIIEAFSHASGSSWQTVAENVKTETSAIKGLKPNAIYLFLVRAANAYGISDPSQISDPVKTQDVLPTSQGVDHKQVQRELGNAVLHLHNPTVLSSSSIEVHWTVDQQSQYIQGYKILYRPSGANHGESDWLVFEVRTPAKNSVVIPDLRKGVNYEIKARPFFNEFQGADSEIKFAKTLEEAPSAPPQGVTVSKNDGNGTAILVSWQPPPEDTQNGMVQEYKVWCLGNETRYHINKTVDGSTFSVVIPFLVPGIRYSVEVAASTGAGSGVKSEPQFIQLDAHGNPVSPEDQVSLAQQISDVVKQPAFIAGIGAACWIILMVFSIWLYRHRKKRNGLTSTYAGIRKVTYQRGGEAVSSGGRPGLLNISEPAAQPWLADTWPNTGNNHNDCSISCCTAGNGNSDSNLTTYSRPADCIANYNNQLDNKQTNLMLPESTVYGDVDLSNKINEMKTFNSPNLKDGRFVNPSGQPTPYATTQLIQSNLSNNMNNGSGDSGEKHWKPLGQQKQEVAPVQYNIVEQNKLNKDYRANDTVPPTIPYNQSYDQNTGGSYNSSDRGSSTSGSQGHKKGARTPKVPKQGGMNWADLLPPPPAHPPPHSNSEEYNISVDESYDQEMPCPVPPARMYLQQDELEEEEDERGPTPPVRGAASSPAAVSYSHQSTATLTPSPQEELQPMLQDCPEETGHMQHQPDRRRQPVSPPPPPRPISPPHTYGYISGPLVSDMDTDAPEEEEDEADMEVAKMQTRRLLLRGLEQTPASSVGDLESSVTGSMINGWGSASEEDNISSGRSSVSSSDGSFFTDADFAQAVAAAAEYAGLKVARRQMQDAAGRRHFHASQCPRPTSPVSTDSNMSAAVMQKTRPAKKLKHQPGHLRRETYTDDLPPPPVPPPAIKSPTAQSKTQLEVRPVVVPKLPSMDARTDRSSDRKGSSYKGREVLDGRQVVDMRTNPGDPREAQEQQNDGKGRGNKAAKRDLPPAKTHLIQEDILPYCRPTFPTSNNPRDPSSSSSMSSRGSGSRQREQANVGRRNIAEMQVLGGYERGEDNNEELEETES

[3] = target: T2, human ROBO3 (pCI-hROBO3-transfected HEK293 cells) (human, UniProt Q96MS0 21-1386)
T2 sequence: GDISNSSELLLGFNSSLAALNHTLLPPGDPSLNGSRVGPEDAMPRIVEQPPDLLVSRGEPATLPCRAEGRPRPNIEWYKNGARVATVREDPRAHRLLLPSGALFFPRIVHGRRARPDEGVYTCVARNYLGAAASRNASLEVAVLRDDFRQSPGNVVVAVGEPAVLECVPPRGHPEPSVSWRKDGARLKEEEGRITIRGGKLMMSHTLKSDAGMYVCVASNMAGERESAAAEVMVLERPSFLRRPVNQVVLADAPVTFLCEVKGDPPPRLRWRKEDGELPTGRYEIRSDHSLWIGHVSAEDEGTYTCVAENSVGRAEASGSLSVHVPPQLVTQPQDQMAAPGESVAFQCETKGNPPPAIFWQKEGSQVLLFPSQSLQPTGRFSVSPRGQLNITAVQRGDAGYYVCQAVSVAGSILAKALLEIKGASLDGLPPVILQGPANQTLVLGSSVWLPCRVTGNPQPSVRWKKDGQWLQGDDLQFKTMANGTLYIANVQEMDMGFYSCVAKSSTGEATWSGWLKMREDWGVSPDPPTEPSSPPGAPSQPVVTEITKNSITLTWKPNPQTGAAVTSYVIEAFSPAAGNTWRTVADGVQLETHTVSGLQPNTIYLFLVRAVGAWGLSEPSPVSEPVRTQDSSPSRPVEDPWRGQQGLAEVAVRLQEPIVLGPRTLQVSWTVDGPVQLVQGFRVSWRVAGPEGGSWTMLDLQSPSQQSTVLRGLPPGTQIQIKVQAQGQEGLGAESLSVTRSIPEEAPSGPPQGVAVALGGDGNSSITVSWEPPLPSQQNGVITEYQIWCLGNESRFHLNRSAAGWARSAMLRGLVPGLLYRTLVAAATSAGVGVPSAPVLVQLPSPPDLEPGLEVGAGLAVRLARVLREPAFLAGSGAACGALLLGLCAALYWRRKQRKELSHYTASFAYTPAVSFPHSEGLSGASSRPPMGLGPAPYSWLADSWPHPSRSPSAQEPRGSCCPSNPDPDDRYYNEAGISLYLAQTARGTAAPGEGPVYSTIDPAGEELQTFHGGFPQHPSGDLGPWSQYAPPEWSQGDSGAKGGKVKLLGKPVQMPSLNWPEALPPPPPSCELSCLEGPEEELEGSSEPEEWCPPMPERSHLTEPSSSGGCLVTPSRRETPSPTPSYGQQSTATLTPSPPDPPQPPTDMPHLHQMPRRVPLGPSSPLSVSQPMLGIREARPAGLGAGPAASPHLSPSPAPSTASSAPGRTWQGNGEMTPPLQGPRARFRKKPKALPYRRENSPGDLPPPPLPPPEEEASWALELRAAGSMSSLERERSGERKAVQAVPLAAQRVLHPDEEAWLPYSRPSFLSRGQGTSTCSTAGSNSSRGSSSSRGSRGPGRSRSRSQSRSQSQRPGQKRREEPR

B1: humanized MAb1 antibody H-1140 (antibody, human IgG2, kappa, V domains shown)
VH: EVQLVESGGGLVQPGGSLRLSCAASGFTFSTYAMSWVRQAPGKGLEWVATISQGGTYTYYPDSVKGRFTISRDNAKNTLYLQMNSLRAEDTAVYYCARLIYYDYLDYWGQGTLVTVSS
VL: DIVMTQSPLSLPVTLGEPASISCRSSQSLENSNGNTYLNWYLQKPGQSPQLLIYRVSNRFSGVPDRFSGSGSGTDFTLKISRVEAEDVGVYYCLQVTHVPWTFGPGTKVDIKR
notes: Human IgG2 / kappa constant regions; also called hMAb1-H2-type heavy chain + hMAb1-L1-type light chain
B1: no binding (tested: 10 µg/mL (method of 4)-3-2)) [1]; no binding (tested: 10 µg/mL (method of 4)-4-2)) [2]; no binding (tested: 10 µg/mL (method of 4)-4-2)) [3].

From patent US20150098945A1 (Daiichi Sankyo, published 2015)
